Sequences and labels used below:
T1: recombinant, soluble human ASGR-1 (human, UniProt P07306 62-291)
T1 construct: biotinylated in the binning assay; also called soluble huASGR-1; Soluble ASGR-1 (Amgen)
T1 sequence: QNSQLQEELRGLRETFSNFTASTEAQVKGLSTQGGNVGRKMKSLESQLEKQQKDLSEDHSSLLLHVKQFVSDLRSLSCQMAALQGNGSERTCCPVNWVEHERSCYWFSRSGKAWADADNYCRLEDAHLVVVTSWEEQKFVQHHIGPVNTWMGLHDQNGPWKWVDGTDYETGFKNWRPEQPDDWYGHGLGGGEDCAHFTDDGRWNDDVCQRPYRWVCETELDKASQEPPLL

B1: 219H1 (antibody, V domains shown)
VH: QVQLVESGGGVVQPGRSLRLSCAASGFTFSRYGMHWVRQAPGKGLEWVAVIWYDGSNKHYADSVKGRFTISRDNSKNTLYLQMNSLRGEDTAVYYCARDRGVGYNGMDVWGQGTTVTVSS
VL: DIQMTQSPSSQSASVGDRVTITCRASQGISNYLDWFQQKPGKAPKSLIYSASNLQSGVPSKFSGSRSGTDFTLTISSLQPEDFATYYCQHYSNYPLTFGGGTKVEIK
notes: hybridoma mAb
B2: 74G6 (antibody, V domains shown)
VH: B1 VH with R31S, H59N, G88A, R100G, G101S, V102Y, N105D, M107L, V109Y, T115L
VL: DIQMTQSPSSLSASVGDRVTITCRASQGIGKYLAWFQQKPGKAPKSLIYTTSSLQSGAPSKFSGSGSGTDFTLTISSLQYEDFATYYCQQYSNYPLTFGGGTKVEIN
notes: hybridoma mAb
B3: 74C8 (antibody, V domains shown)
VH: B1 VH with R31S, H59N, G88A, R100G, G101S, V102Y, N105D, M107L, V109Y, T115L
VL: B2 VL with S53N
notes: hybridoma mAb
B4: 192C10 (antibody, V domains shown)
VH: QVQLVESGGGVVQPGRSLRLSCASSGFTFRNYGMHWVRQAPGKGLKWVAVIWFDGSNDYYADSVKGRFTISRDNSKNTLSLQMNSLRAEDTAVYYCARDRSVGYDGLDVWGQGTTVTVSS
VL: DIQMTQSPSSLSASVGDRVTITCRASQGIGKYLAWFQQKPGKAPKSLIYAASSLQSGVPSKFSGSGSGTDFTLTISSLQPDDFATYYCQRYDTYPFTFGPGTKVDFK
notes: hybridoma mAb
B5: 213B3 (antibody, V domains shown)
VH: B1 VH with R31S, H59N, G88A, G101T, N105D, M107F, V109I, T115M
VL: B4 VL with Y49S, L54V, Q55L, D81E, R90K, F106I
notes: hybridoma mAb
B6: 197G3 (antibody, V domains shown)
VH: B1 VH with A23V, R31S, Y32H, H59N, G88A, R100P, G101S, N105D
VL: B4 VL with K31N, Y32H, G66R, T72S, D81E, R90Q, D92S, T93N, F96V, F106I
notes: hybridoma mAb
B7: 194B7 (antibody, V domains shown)
VH: B1 VH with R31S, H59N, G88A, G101S, V102K, N105D
VL: B1 VL with Q11L, N31K, D34A, S50G, N53R, R66G, S92L, G100Q, K103R, V104L
notes: hybridoma mAb
B8: 192E4 (antibody, V domains shown)
VH: B1 VH with R31S, H59N, A61V, K65R, G88A, G101S, N105D
VL: B4 VL with K31N, A50V, A51V, K61R, D81E, F106I
notes: hybridoma mAb
B9: 197E11 (antibody, V domains shown)
VH: B4 VH with S24A, K46E
VL: B4 VL with G30N, A34S, L54V, S77R, C88G, F106I
notes: hybridoma mAb

The values that follow come from patent publication US20190248902A1 (published 2019).

Substitutions are numbered along the chain they refer to.

The first assay addresses T1, recombinant, soluble human ASGR-1. Briefly: Octet BLI dissociation, pH 7.4 minus calcium. Summed up: (§1)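 Antibodies were captured on anti-human Fc biosensors, and soluble ASGR-1 (6 ug/ml) was associated for 2 min in Tris buffer containing 1 mM CaCl2 at pH 7.4, followed by 10 min dissociation under each test condition. The signal at the end of association was set as 100%. Percent ASGR-1 still bound after 1 min of dissociation was compared with the pH 7.4 plus calcium control, and >10% extra dissociation was scored as sensitive.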
On to B1, for which the “% Change Compared to pH 7.4 + Calcium” value is 2%.

With B2, the “% Change Compared to pH 7.4 + Calcium” value was found to be 1%.

As to B3, the “% Change Compared to pH 7.4 + Calcium” value stood at 1%.

For the molecule B4, the “% Change Compared to pH 7.4 + Calcium” value was -1%.

On to B5, for which the “% Change Compared to pH 7.4 + Calcium” value was -1%.

On to B6, for which the “% Change Compared to pH 7.4 + Calcium” value came out at 2%.

As to B7, the “% Change Compared to pH 7.4 + Calcium” value was found to be 1%.

On to B8, for which the “% Change Compared to pH 7.4 + Calcium” value is -2%.

Take B9: the “% Change Compared to pH 7.4 + Calcium” value was -1%.

For a further assay the target is unchanged. Briefly: Octet BLI dissociation, pH 5.6 minus calcium. The method, boiled down:
as §1
In general terms: In BLI a coated tip is dipped into the sample, and binding shifts an interference pattern.
B1: the “% Change Compared to pH 7.4 + Calcium” value was 1%.

In the case of B2, the “% Change Compared to pH 7.4 + Calcium” value was -4%.

Take B3: the “% Change Compared to pH 7.4 + Calcium” value was -3%.

In the case of B4, the “% Change Compared to pH 7.4 + Calcium” value was -6%.

With B5, the “% Change Compared to pH 7.4 + Calcium” value was -3%.

Turning to B6, the “% Change Compared to pH 7.4 + Calcium” value was -3%.

Take B7: the “% Change Compared to pH 7.4 + Calcium” value is -4%.

As for B8, the “% Change Compared to pH 7.4 + Calcium” value was -8%.

Take B9: the “% Change Compared to pH 7.4 + Calcium” value is -4%.

The next assay has the same target. Briefly: Octet BLI dissociation, pH 5.6 plus calcium. The method, boiled down: as §1
Turning to B1, the “% Change Compared to pH 7.4 + Calcium” value is -3%.

On to B2, for which the “% Change Compared to pH 7.4 + Calcium” value was -9%.

Turning to B3, the “% Change Compared to pH 7.4 + Calcium” value is -7%.

For the molecule B4, the “% Change Compared to pH 7.4 + Calcium” value was -6%.

With B5, the “% Change Compared to pH 7.4 + Calcium” value was -7%.

For B6, the “% Change Compared to pH 7.4 + Calcium” value is -3%.

On to B7, for which the “% Change Compared to pH 7.4 + Calcium” value is -4%.

B8: the “% Change Compared to pH 7.4 + Calcium” value was -9%.

As to B9, the “% Change Compared to pH 7.4 + Calcium” value is -5%.
